B1: TPR t1 (parent)
chain: GACCAAUCUGCCCUCAGAGCUCGAGAACAUCUUCGGAUGCAGAGGAGGCAGGCUUCGGUGGCGCGAUAGCGCCAACGUCCUCAACCUCCAAUGCAUCCCACCACAUGAUGAUGCCUGAAGAGCCUUGGUUUUUUG

Variants of: B1
Assay: polymerase ribozyme fitness, log enrichment relative to wild type (log ratio); higher = more active; in vitro selection for triplet polymerase activity
Method in brief: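 Mutant libraries of both subunits of a heterodimeric triplet polymerase ribozyme were PCR-built, transcribed, and selected once in triplicate, with frozen incubation at −7 °C and capture of gel-excised extended constructs on streptavidin beads before RT-PCR. Illumina sequencing of input and output libraries was filtered to genotypes with ≥10 input reads and ≥1 read per output. Fitness is the logarithm of genotype enrichment over wild-type enrichment, using inverse-variance-weighted replicate averages. The logarithm is base 2.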

| Variant | polymerase ribozyme fitness (log ratio) |
| --- | --- |
| C82G C98A A118U | -5.57 |
| C82G C99U | -3.61 |
| C82G C123G U126C G128C | -2.13 |
| C82G G93C U129G | -2.84 |
| C82G G110U | -3.25 |
| C82G G117C | -3.58 |
| C82G G128A | -2.22 |
| C82G U109C | -5.03 |
| C82U A91U A100U | -3.25 |
| C82U C88G C124U | 0.172 |
| C82U C89A | -1.21 |
| C82U C89U G113U G120A G128A | -5.47 |
| C82U G117U | -2.7 |
| C82U U87C G113A | -1.19 |
| C82U U96A C101A G127A | -4.42 |
| C82U U96G G122A | -1.25 |
| A83C A121G | 1.63 |
| A83C C88U | -0.561 |
| A83C C101G U109A G120A | -7.06 |
| A83C C114A C123G C124G | -0.19 |
| A83C G93C | -0.701 |
| A83C G107U G113A | -3.74 |
| A83C G110U G117U | -5.17 |
| A83C G113U | -3.09 |

| Variant | polymerase ribozyme fitness (log ratio) |
| --- | --- |
| A83C U92A C114A G128C | -6.64 |
| A83C U112G G113C G120U U130C | -7.33 |
| A83G A90G | -0.465 |
| A83G C86A G113A | -2.01 |
| A83G C89A | -3.89 |
| A83G C89A U106G | -4.3 |
| A83G C97U C115A G135C | -1.7 |
| A83G G93A G120U | -1.68 |
| A83U A91C G128A | -2.84 |
| A83U C98U U130C | -0.673 |
| A83U C115U C123G G135U | -1.98 |
| A83U G107A | -5.83 |
| A83U G120A U125A | 0.929 |
| A83U G120U U130C | -0.376 |
| A83U U125A | -0.797 |
| A84C | -0.112 |
| A84C C85G G93A C101U | -2.22 |
| A84C C114G G127A | -4.73 |
| A84C C124A | 1.76 |
| A84C C124G | 1.9 |
| A84C U116C | 0.658 |
| A84G | -0.482 |
| A84G A118G | -0.615 |
| A84G C88U | -0.134 |

| Variant | polymerase ribozyme fitness (log ratio) |
| --- | --- |
| A84G C88U U116G C124A | -0.458 |
| A84G U129G | -1.32 |
| A84U | -0.405 |
| A84U C97A | -5.72 |
| A84U C101U G122A U132A | -1.15 |
| A84U C115A | -0.457 |
| A84U C115A U125G | -0.872 |
| A84U G117C C124G | -1.4 |
| A84U G127A | -0.952 |
| A84U G128A | -1.72 |
| A84U U106A | -0.185 |
| A84U U106G A118G | -1.83 |
| A84U U109G | -4.27 |
| A84U U112G | 0.742 |
| A84U U130C | 0.517 |
| A84U U133G | -0.42 |
| C85A A95U A100U | -3.28 |
| C85A A100C | -2.71 |
| C85A C89A U106A C114A | -5.22 |
| C85A C99U | -4.7 |
| C85A C101G U109G G117C | -7.01 |
| C85A C102U A121U C124U | -1.07 |
| C85A C104U | -1.07 |
| C85A G110A G127A | -3.71 |

| Variant | polymerase ribozyme fitness (log ratio) |
| --- | --- |
| C85A G113C G122C U129C | -4.98 |
| C85A U116C | -2.08 |
| C85G A90U G127C U133A | -4.53 |
| C85G A119G | -0.0195 |
| C85G C97U | -2.99 |
| C85G G110A U126C | -2.99 |
| C85G G113A | -2.15 |
| C85G G113C | -3.51 |
| C85G G117C | -5.23 |
| C85G G117C G128U | -7.06 |
| C85G U130A G135U | -3.18 |
| C85G U130G | -2.71 |
| C85G U132A | -1.6 |
| C85U A90U U109G C124A | -6.07 |
| C85U A91C A95G | -2.23 |
| C85U C86G | -1.13 |
| C85U C88U | -0.176 |
| C85U C99U | -4.89 |
| C85U C123G | 0.896 |
| C85U G113A | -2.02 |
| C85U G120A | -0.267 |
| C85U G135U | -1.91 |
| C85U U87A C88A | -2.23 |
| C85U U96C | -0.852 |

| Variant | polymerase ribozyme fitness (log ratio) |
| --- | --- |
| C85U U109A | -6.03 |
| C85U U112A G122U U126G | -4.47 |
| C86A A90C G135U | -2.98 |
| C86A A90G | 0.132 |
| C86A A90U | -1.19 |
| C86A A91U | -2.01 |
| C86A C114U A119U | -3.57 |
| C86A C115A G128A U133A | -4.43 |
| C86A C123U C124G | 0.744 |
| C86A G120U | -0.761 |
| C86A G127C | -1.91 |
| C86A U92A G93C G120A | -4.42 |
| C86G A100U | -0.874 |
| C86G A100U G128C | -3.41 |
| C86G C88A | -1.96 |
| C86G C89A C114A | -4.58 |
| C86G C101A | -1.32 |
| C86G C102G C115A U133A | -5.49 |
| C86G G93C U132C | -2.42 |
| C86G G120A | -0.356 |
| C86G U112G | 0.00839 |
| C86U A90U | -1.08 |
| C86U A100C G110U U129C | -4.69 |
| C86U A103C | -5.52 |

| Variant | polymerase ribozyme fitness (log ratio) |
| --- | --- |
| C86U C94U C115A | -0.874 |
| C86U C97U | -0.517 |
| C86U C114U | -1.7 |
| C86U G93U U106C C124U U126A | -2.34 |
| C86U G110C | -3.72 |
| C86U G113A G127C | -1.64 |
| C86U G120A U130C G135U | -0.0631 |
| C86U U87A C101A U129G | -3.91 |
| C86U U112A | 0.825 |
| U87A A105U U116C | -3.54 |
| U87A C88A U96C | -1.02 |
| U87A C88U | -1.46 |
| U87A C89U | 0.835 |
| U87A C89U G128A | -2.15 |
| U87A C114A | -2.58 |
| U87A C115A | 0.108 |
| U87A C115U | -0.739 |
| U87A C124U | 1.04 |
| U87A G113A | -1.76 |
| U87A G120U | 0.227 |
| U87A G122A | -0.168 |
| U87A U112A | 1.76 |
| U87A U129A | -0.873 |
| U87C A103U | -3.8 |

| Variant | polymerase ribozyme fitness (log ratio) |
| --- | --- |
| U87C A105G | -1.78 |
| U87C C98A | -4.87 |
| U87C C114G | -2 |
| U87C C124U | 0.583 |
| U87C G107U | -4.55 |
| U87C G120A G127A | -1.22 |
| U87C G120U | -1.06 |
| U87C U130C | 0.298 |
| U87G A91U U109A U125C | -5.71 |
| U87G A111U | -2.77 |
| U87G A121C | 1.82 |
| U87G C102A C124G | 0.127 |
| U87G C124A | 0.735 |
| U87G G93A U112A U133A | 1.36 |
| U87G G113U | -3.33 |
| C88A A121C | 1.66 |
| C88A C89G C123U U134G | 0.911 |
| C88A C97U U109A G110C | -6.36 |
| C88A C101A | -1.2 |
| C88A C101U A111U | -3.57 |
| C88A C123U | 1.08 |
| C88A G113U | -2.76 |
| C88A U133A | 0.0129 |
